Laboratory results reported in patent publication CN115028713A (JIANGSU DONGKANG BIOMEDICAL TECH CO LTD, dated 2022).

Target: 重组新冠N蛋白 N-HIS6X (recombinant SARS-CoV-2 N protein with His6 tag) (SARS-CoV-2, UniProt P0DTC9 1-419)

B1: 单克隆抗体OP2 (anti-SARS-CoV-2 N protein monoclonal antibody OP2) (antibody, V domains shown)
VH: DVQLVESGGGLVQPGGSRKLSCAASGSTFSNFGMHWVRQAPEKGLEWVAYISSASSIIYYADTVKGRFTISRDNPKNTLFLQMTSLRSEDTAMYYCARSAMDYWGQGTSVTVSS
VL: DIVLTQSPASLAVSLGQRATISCKASQSVNYSGDSYMNWFQQKPGQPPKLLIYAASNLESGIPARFSGSGSGTDFTLNIHPVEEEDAATYYCQQSEEQPYTFGGGTKLEIK
notes: also called 抗N蛋白的抗体
In the case of B1, the EC50 is reported as 0.0113 µg/mL.
